Assay results from IntAct's records for PubMed 33513601.

Target: un13d_human UNC13D (UniProt Q70J99)
Sequence (Q70J99 whole entry): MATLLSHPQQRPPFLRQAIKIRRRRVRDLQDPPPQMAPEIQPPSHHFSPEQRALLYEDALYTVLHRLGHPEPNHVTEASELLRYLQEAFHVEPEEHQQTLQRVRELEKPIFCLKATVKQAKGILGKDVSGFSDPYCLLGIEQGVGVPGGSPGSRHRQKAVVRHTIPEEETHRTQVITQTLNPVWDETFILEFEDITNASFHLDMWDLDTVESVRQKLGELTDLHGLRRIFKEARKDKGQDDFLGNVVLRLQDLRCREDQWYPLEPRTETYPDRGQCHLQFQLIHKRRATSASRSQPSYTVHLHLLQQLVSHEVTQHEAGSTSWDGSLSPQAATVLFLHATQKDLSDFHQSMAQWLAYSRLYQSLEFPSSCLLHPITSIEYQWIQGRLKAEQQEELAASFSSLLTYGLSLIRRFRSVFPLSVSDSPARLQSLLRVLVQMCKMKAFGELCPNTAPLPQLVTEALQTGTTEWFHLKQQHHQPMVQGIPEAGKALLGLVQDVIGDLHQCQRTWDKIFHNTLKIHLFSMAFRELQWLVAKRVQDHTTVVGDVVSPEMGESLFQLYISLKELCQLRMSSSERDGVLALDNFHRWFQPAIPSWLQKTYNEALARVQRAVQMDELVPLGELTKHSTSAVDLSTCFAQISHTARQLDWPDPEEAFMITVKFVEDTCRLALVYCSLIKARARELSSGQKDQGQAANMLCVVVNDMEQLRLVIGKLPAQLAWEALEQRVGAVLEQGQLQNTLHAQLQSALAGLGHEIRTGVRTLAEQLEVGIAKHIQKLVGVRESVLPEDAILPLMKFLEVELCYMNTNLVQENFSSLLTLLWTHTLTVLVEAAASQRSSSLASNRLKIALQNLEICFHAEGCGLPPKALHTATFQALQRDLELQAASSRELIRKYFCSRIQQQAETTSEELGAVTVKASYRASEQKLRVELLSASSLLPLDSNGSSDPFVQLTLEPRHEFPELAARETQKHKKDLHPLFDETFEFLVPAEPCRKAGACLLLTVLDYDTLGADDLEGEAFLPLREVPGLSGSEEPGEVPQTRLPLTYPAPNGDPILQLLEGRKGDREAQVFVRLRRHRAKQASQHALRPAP

Chain of Rho-related GTP-binding protein RhoG (Homo sapiens), P84095 Q61L (P84095 whole entry Q61L): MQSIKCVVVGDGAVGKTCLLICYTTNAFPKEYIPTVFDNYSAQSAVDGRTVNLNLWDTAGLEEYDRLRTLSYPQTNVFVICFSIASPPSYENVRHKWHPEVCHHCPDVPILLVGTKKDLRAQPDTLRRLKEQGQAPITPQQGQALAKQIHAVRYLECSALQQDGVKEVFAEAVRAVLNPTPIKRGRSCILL

effect of a mutation on the interaction: with no effect
Substance: Rho-related GTP-binding protein RhoG (Homo sapiens), P84095 Q61L
